This note sets out measurements from patent US20040146964A1 (ISIS INNOVATION, published 2004).

Changes are numbered by the printed parent chain. Names and notes keep the numbering of the source. Where no end group is shown, it is not given here. [ ]: non-standard residue; d: D form. Hyp = O=C(O)[C@@H]1C[C@@H](O)CN1

The target of test [1] is T1, mutant (Pro86His) pVHL (human, UniProt P40337 1-213).
T1 construct: also called mutant pVHL
Nature of the test: biotinylated peptide capture on streptavidin beads.
Description: (§1) The 19:WT polypeptide was either incubated with cell extract before the binding assay or was untreated.

Test [2] concerns the target T2, C. elegans HIF P621G mutant (C. elegans, UniProt G5EGD2 1-719).
T2 construct: also called ceHIF Pro621-Gly; pcDNA1cehif.P621G
T2 sequence: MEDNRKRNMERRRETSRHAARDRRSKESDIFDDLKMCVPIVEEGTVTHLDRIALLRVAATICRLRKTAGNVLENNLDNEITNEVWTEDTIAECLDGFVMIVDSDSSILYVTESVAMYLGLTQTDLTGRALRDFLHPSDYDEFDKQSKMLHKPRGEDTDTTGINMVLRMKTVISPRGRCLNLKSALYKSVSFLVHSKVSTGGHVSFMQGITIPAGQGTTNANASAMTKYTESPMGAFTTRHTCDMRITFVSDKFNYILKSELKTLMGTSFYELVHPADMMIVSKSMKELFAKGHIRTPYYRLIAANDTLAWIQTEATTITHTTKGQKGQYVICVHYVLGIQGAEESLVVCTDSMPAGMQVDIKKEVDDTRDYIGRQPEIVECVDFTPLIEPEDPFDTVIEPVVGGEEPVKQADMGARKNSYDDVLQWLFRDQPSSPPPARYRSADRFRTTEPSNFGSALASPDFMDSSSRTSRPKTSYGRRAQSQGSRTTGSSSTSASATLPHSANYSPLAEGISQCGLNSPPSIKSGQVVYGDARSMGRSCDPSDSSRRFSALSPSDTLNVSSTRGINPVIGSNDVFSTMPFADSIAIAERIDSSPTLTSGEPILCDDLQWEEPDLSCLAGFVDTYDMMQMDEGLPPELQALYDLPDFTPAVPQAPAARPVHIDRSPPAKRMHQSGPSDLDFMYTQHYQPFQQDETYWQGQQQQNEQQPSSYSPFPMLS
Description: anti-HA co-IP of IVTT products.
Description: (§2) For interaction assays 1 μl of each programmed lysate was mixed in EBC buffer at 4° C. for 1 hr before anti-HA immunoprecipitation as described in Cockman et al. Pretreatment of ceHIF with worm extract was for 30 min at 25° C. with 10 μI of extract derived by hypotonic extraction of a worm homogenate in 20 mM Tris pH7.5, 5 mMKCl, 1.5 MgCl2, 1 mMDTT.

The target in test [3] is T3, C. elegans HIF-α homologue, wild type (C. elegans, UniProt G5EGD2 1-719).
T3 construct: 35S-labelled reticulocyte IVTT from pcDNA1cehif; also called ceHIF; HIF-1 (C. elegans)
T3 sequence: T2 sequence with G621P
Nature of the test: anti-HA co-IP of reticulocyte IVTTs, ceHIF pre-treated with worm extract.
Description: as §2

The target in test [4] is T1, mutant (Pro86His) pVHL. Nature of the test: biotinylated peptide, after cell extract, capture on streptavidin beads.
Description: as §1
In test [5] the target is T4, VHL E3 ubiquitin ligase complex containing HA tagged human pVHL (human, UniProt P40337 1-213).
T4 construct: also called VHL E3 ligase; 786-0/VHL cell extract
Nature of the test: VHL E3 interaction assay with 35S-labelled IVTT product.

T1 sequence (P40337 whole entry P86H): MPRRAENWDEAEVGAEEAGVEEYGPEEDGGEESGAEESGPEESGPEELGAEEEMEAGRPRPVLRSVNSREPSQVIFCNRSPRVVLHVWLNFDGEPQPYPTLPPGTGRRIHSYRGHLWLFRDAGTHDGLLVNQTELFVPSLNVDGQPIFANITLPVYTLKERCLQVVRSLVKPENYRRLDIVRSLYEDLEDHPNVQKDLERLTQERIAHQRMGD
T4 sequence (P40337 whole entry, one chain of several): as the sequence (P40337 whole entry P86H) above, with H86P counted along it

Regarding DLDLEMLA[Hyp]YIPMDDDFQL (also: biotinylated version used in pVHL capture assays, also called 19:Pro564Hyp; B19Hyp), the binding result with mutant (Pro86His) pVHL [1] is reported as “no binding”.

B1: c-terminal HA tagged ceVHL (other, not shown: small tags and cut ends)
chain: MSDGSMDDDGRLFPDLGSSTHDNREIRVRFLNRCAYPVDVFWLNPSKQPTKYGTLAQKKYLDIKTFKDHPWVARRSFDGCKVLVNEKEVFWPEPAPRMNLIVRNHCVITMKVQSLREIAGRSFLRHNPTEVPNKIKGLPRELQFEVKHFLDRKQEYSEIVCRSIPPPGPQRPQQ
notes: also called ceVHL-HA
On to B1, for which the binding result in test [2] is “no binding”; in test [3], “binds”. Turning to DLDLEMLAPYIPMDDDFQL (also: biotinylated version used in pVHL capture assays, also called 19:WT; 19 WT) [synthetic polypeptide of HIF-1α residues 556-574, unmodified], in the test with mutant (Pro86His) pVHL [4], the binding result was “no binding”.

B2: tat-NODD proline mutant (HIF-1α 343-417/P402A) (other)
chain: SGIIQHDLIFSLQQTECVLKPVESSDMKMTQLFTKVESEDTSSLFDKLKKEPDALTLLAAAAGDTIISLDFGSND
Consider B2, for which the binding result in test [5] is “no binding”. On the same count and under the same terms, then PFSTQDTDLDLEMLAGYIPMDDDFQLRSFDQLSP (other) [tat-CODD proline mutant (HIF-1α 549-582/P564G)], with “no binding”.
